From the nanobody polyreactivity screen of Harvey et al. (2022)

Assay: yeast display, Sf9 membrane polyspecificity reagent, FACS + sequencing; frameworks hold sequencing errors
Procedure, shortened: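 Galactose-induced (36–48 hours) yeast carrying a synthetic nanobody display library were exposed to 10% biotinylated, detergent-solubilized Sf9 membrane reagent at 4 °C for 1 hour. FACS followed streptavidin microbead enrichment, using low and high (top ~1%) gates for expression (anti-HA) and reagent binding (streptavidin). Colony PCR, MiSeq 2 × 250 sequencing and CDR-length filtering followed. Labels for polyreactivity reflect the gate of origin.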

With “QVQLVESGGGLVQAGGSLRLSCAASGSIFVQYALGWYRQAPGKERELVAAISQRGGSTYYADSVKGRFTISRDNAKNTVYVQMNSLKPADTAVYYCRPYPPSYYVTFGYGYWGQGTQVTVSS” as the sequence, how does the “polyreactivity (PSR sort gate)” value read?
The value was “high polyreactivity”.

Which “polyreactivity (PSR sort gate)” value does the source give for “QVQLVESGGGLVQAGGSLRLSCAASGITFSSYAMGWYRQAPGKERELVAGITRRGRITYYADSVNGRFTISRDNAKNTVYLQMNSLKPEDTAVYYCAATHRFRTGSPDGGFGYWGQGTQVTVSS” here?
Its value is “high polyreactivity”.

For “QVQLVESGGGLVQAGGSLRLSCAASGFIFPVNAMGWYRQAPGKERELVAAITSSGGDTYYADSVKGRFTISRDNAKNTVYLQMNSLKPEDTAVYYCAAEYTQEQEDYDYWGQGTQVTVSS”, which “polyreactivity (PSR sort gate)” value is on record?
Its value is “low polyreactivity”.

Which “polyreactivity (PSR sort gate)” value does the source give for “QVQHVESGGGLVQAGGSLRLSCAASGNIFGLNAMGWYRQAPGKERELVAAISKSGGSTFYADSVKGRFTISRDNAKNTVYLQMNSLKPEDTAVYYCAADHRYHWAYPRGYYYWGQGTQVTVSS” here?
Its value is “high polyreactivity”.

Which “polyreactivity (PSR sort gate)” value does the source give for “QVQLVESGGGLVQAGGSLRLSCAASGFTFLVYAMGWYRQAPGKERELVAGITSGGRTYYADSVKGRFTISRDNAKNTVYLQMNSLKPEDTAVYYCAASRWAYEMNYWGQGSQVTVSS” here?
The value was “high polyreactivity”.

For “QVQLVESGGGLVQAGGSLRLSCAASGFIFYRYAMGWYRQAPGKESELVAAISRSGGSKYYADSVKGRFTISRDLANNTVYLQLNSLKPEDTAVYYCATPVHRKLYLVNYWGQGTQVTVSS”, which “polyreactivity (PSR sort gate)” value is on record?
The value was “low polyreactivity”.

With “QFQLVESGGGLVQAGGSLRLSCAASGLTIDPNAMGWYRQAPGKERELVATITQTDGSTYYADSVKGRFTISRDNAKNTVYLQMNSLKPEDTAVYYCVGLVSRGSDYWGQGTQVTVSS” as the sequence, how does the “polyreactivity (PSR sort gate)” value read?
Its value is “low polyreactivity”.

Which “polyreactivity (PSR sort gate)” value does the source give for “QVQLVESGGGLVQAGGSLRLSCAASGFTFDAYDMGWYRQAPGKERELVASITGGGSTYYADSVKGRFTISRDNAKNTVYLQMNSLKPEDTAVYYCAADLYFEGYNRYYHISGFDYWGQGTQVTVSS” here?
The value was “low polyreactivity”.

Which “polyreactivity (PSR sort gate)” value does the source give for “QVQLVESGGGLVQAGGSLRLSCAASGSTFGRNVIGWYRQAPGKERELVAAISIRGGSTYYADSVKGRFTISRDIAKNTVYLQMNSLKPEDTAVYYCALDYPTDAYDYWGQGTQVTVSS” here?
Its value is “low polyreactivity”.

With “QVQLVESGGGLVQAGGSLRLSCAASGSTFEYNAMGWYRQAPGKERELVASSTNYADSGKGRFTISRDNAKNTVYLQMNSLKPEDTAVYYCAREQGVNRNHDYWGQGTQVTVSS” as the sequence, how does the “polyreactivity (PSR sort gate)” value read?
The value was “low polyreactivity”.

For “QVQLVESGGGLVQAGGSLRLSCAASGSTFYYYAMGWYRQAPGKERELVAVISWGGGSTYYADSVKGRFTISRDNAKNTVYLQMNSLKPEDTAVYYCAAVYDEYQTSHEYDYWGQGTQVTVSS”, which “polyreactivity (PSR sort gate)” value is on record?
Its value is “low polyreactivity”.

For “QVQLVESGGGLVQAGGSLRLSCAASGRIFIAYAMGWYRQAPGKERELVAAITDDGGTNYADSVKGRFTISRDNAKNTVYLQMNSLKPEDTAVYYCAATYLIGYYYVWEYDYWGQGTHVTVSS”, which “polyreactivity (PSR sort gate)” value is on record?
The value was “low polyreactivity”.

For “QVQLVESGGCLVQAGVSLRLSCAASGSIFSPYAMGWYRQAPGKEREFVASITFNGGSTYYADSVKGRFTISRDNAKNTVYLQMNSLKPEDTAVYYCAASYWYDTYWLMDYWGQGPQVTVSS”, which “polyreactivity (PSR sort gate)” value is on record?
Its value is “high polyreactivity”.

Which “polyreactivity (PSR sort gate)” value does the source give for “QVQLVESGGGLVQAGGSLRLSCAASGGTFRRYAMGWYRQAPGKEREIVAAITISGGNTYYADSVKGRFTISRDNAKNTVYLQMNSLNPEDTAVYYCAADYAYNKYLSVEYWGQGTQVTVSS” here?
Its value is “low polyreactivity”.

For “QVLLQESGGGLVQAGGSLRLSCAASGTISTDIRMGLYSLAPGKAREFVASIDGCSTTYYADSVKGRFTISRDNAKNTVYLKMNSLKPVDTAMYYCAAREATEFYLYYWGQGTQVTVSS”, which “polyreactivity (PSR sort gate)” value is on record?
Its value is “low polyreactivity”.

Which “polyreactivity (PSR sort gate)” value does the source give for “QVQLVESGGGLVQAGGSLRLSCAASGITFEGYAMGWYRQAPGNEREFVAAITSTGTSTRYADSVKGRFTISRDNAKNTVYLQMNSLKPEDTAVYYCAATSHFLSWHLRYYWGQGTQVTVSS” here?
The value was “high polyreactivity”.

For “QVQLVESGGGLVQAGASLRLSCAASGGTIAPYAMGWYRQAPGNVRELVAAITSAGTRTYYADSVKGRFTISRENAKNTVYLQMNRLKPEDTAVYYCAAGGGHSMYYWGKGTQVTVSS”, which “polyreactivity (PSR sort gate)” value is on record?
Its value is “high polyreactivity”.

With “QVQLVESGGGLVQAGGSLRLSCAASGSTIYHYTMECYRQAPGKERELVAAITYSGGRTYYADSVKGRFTISRDNAKNTVYLQMNSLKPEDTAVYYCAATYSTPGAGYYHYWGQGTQVTVSS” as the sequence, how does the “polyreactivity (PSR sort gate)” value read?
Its value is “high polyreactivity”.

For “PVQLVESGGGLVQAGGSLRLSCSSSGRIFASNAMGWYRQPPGKDRELVAAIDQGGGSTYYADSVKGRFTISRDNAKITVYLQMNSLKPEDTAVYYCAADYITAYPRLYNYWGLGTQVTVSS”, which “polyreactivity (PSR sort gate)” value is on record?
The value was “low polyreactivity”.

With “QGQLVESGGGLVQAGGSLRLSCAASGSIFNTYAMGWYRQAPGKEREFVASISRSGGSTRYADSVKGRFTISRDNAKNTVYLQMNSLKPEDTEVYYSAARVPRGHVTYDSWGQGTKVTVSS” as the sequence, how does the “polyreactivity (PSR sort gate)” value read?
The value was “high polyreactivity”.

With “QVQLVESGGGLVQAGGSLRLSCAASGRIFVPNAMGWYRQAPGKERELVAAITSSGSSTYYADSVKGRFTISRDNAKNTVYLQMNSLKPEDTAVYYCNTLWGGFSWFRVDSWGQGTQVTVSS” as the sequence, how does the “polyreactivity (PSR sort gate)” value read?
The value was “high polyreactivity”.

With “QVQLVESGGGLDQAGGSLRLSCAASGSTFKHNAMGWYRQAPGKERKLVAGISWGGSSTYYADSVKGRFTISRDNAKNTVYLQMNSLKPEDTAVYYCAKGGYRRYGYDYWGQGTQETVSS” as the sequence, how does the “polyreactivity (PSR sort gate)” value read?
Its value is “low polyreactivity”.

For “QVQLVESGGGLVQAGASRRLSCAASVFTFGDNAMGWSRQATGKDRELVDAITSSGSTNYADSVKGRFTMSRDIAKNTVYLQLNSLTQEDTAVNYCNAEDSVDAPVYKDLGSEYDSWGQGTQVTVSS”, which “polyreactivity (PSR sort gate)” value is on record?
Its value is “low polyreactivity”.

Which “polyreactivity (PSR sort gate)” value does the source give for “QVQLVETGGGLVQAGGSLRLSCAASGFTFDVYVMGWYRLAPGKERELVAAISWSGDSTYYADSVKGRFTISRDNAKNTVYLQMNSLKPADCAFSFCAAVGYTSRRPVVRYYYWGQGTQVTVSS” here?
Its value is “high polyreactivity”.

For “QVQLVESGGGSVQAGGSLRLSCAASGSTFWSYAMGWYRQAPGKERELVAVITGSDGRTFYADSVKGRFTISRDNANNTFFLQMNSLKPEDTAVYYCAADALFRATRFDRSTSEDDYWGQGTQVTVSS”, which “polyreactivity (PSR sort gate)” value is on record?
The value was “low polyreactivity”.

For “QVQLVESGGGLVQAGGTLRLSCAATGRIFARYAMGWYRQAPGKERELVAAITVSGDNTYYADSVKGRFTISRYNAKNTVYLQMNSLKPEDTAVYYCAVRAVLLFGFFEYDYWGQGTQVTVSS”, which “polyreactivity (PSR sort gate)” value is on record?
The value was “low polyreactivity”.

For “QVQLVESGGGLVQAGGSLRLSCAASGRIFWTNAMGWYRQAPGKERELVAGITWRGGSTYYADSVKGRFTISRDNAKNTVYLQMNSLKPEDTAVYYCATRQGWYSGFDYWGQGTQVTVSS”, which “polyreactivity (PSR sort gate)” value is on record?
Its value is “high polyreactivity”.

Which “polyreactivity (PSR sort gate)” value does the source give for “QVQLVESGGGLVQAGGSLRLSCAASGSTIGLNAMGWYIQEPGKEREFVAAISVSSGNKYYADSVKGRFTISRDNAKNTVYLQMNSLKPEDTAVYYCAARPRSHYIAQYYYWGQGTHVTVSS” here?
Its value is “low polyreactivity”.

Which “polyreactivity (PSR sort gate)” value does the source give for “QVQLVESSGGLVQAGGSLRLSCAASGLTFKRYAMGWYRQAPGKERELVAAINSGGSTNYADSVKGRFTISRDNAKNTVYLQMNSLKPEDTAVYDCAASTSRYYWYALRDYWGQGTQVTVSS” here?
The value was “high polyreactivity”.

With “QVQLVDSGGGLVQAGGSLRLSCAASGSIFPKNAMGWYRPAPGKERELVAAISSGGGGTYYADSVKGRFTISRDNAKNTVYLQMNSLKPEDTAVFYCNKRDGNGGNTKYDYWGQGTQVTVSS” as the sequence, how does the “polyreactivity (PSR sort gate)” value read?
The value was “low polyreactivity”.

With “QVQLVESGGGLVQAGGSLRLSCAASGSIFGVYAMGWYRQAPGKERELVAAISQSGGRTYYADSVKGRFTISRDNAKNTVYLQMNSLKPEDTAVYYCAAVVFNVYRRYWGQGTQVTVSS” as the sequence, how does the “polyreactivity (PSR sort gate)” value read?
The value was “high polyreactivity”.

Which “polyreactivity (PSR sort gate)” value does the source give for “QVQLVESAGGLVQAGGSLRLSCAASGSIFYGNAMGWYRQAPGKERELVASITYSGGTTNYADSVKGRFTISRDTAKNTVYLQMNSLKPEDTAVYYCAADAIPDSVWYWEYDYWGQGTQVTVSS” here?
Its value is “low polyreactivity”.

For “QVLLVESGGGLVQAGGSLRLSCAASGSIFGYKDMGWYRQAPGKERELVASITRGGGRTRYADSVKGRFTISRDNAKNTVYLQMNSLKPEDTAVYYCAADKLSYSYVRPPRNHEDYWGQGTQVTVSS”, which “polyreactivity (PSR sort gate)” value is on record?
Its value is “low polyreactivity”.

Which “polyreactivity (PSR sort gate)” value does the source give for “QGQLVESGGGLVQAGGSLRLSCAASGGIFKAYAMGWYRQAPGQERELVAVITIGGRTTYADSVKGRFTISRDNAKNTVYLQMNSLKPEDTAVYYCAKTNYNWLSTAEHDYWGQGTQVTVSS” here?
The value was “low polyreactivity”.

For “QVQLVESGGGLVQAGGSLRLSCAASGLIFPRYAMGWYRQAPGKERELVAAITSRAGSTYYADSVKGRFTISRDNAKNTVYLQMNSLKPEDTAVYYCAAVSDGWDGDMYYWGQGTQVTVSS”, which “polyreactivity (PSR sort gate)” value is on record?
Its value is “low polyreactivity”.

For “QVQLVESGGGLVQAGGSLRLSCAASGRIFGRYAMGWYRQATGKERELVAAITSGGRTSYADSVKGRFTISRDNAKNTVYLQMNSLKPEDTAVYYCNVVSRNSIRFDYWGQGTQVTVSS”, which “polyreactivity (PSR sort gate)” value is on record?
The value was “high polyreactivity”.

Which “polyreactivity (PSR sort gate)” value does the source give for “QVQLVESAGGLVQAGGSLRLSCAASGSTFYTYAMGWYRQAPGKERELVAAISWSGGSTYYADSVKGRFTISRDNAKNSVYLQMNSLKPEDTAVYYCAARRVKYISLDYWGQGTQVTVSS” here?
Its value is “low polyreactivity”.

With “QVQLVESGGGLVQAGGSLRLSCAASGSTFSLYAMGWYRQAPGKERELVASSRWSGGRTYDADSVKGRFTISRDNAKNTVYLQMNSLKPEDTAVYYCAAAWRYGYGYLGQGTQVTVSS” as the sequence, how does the “polyreactivity (PSR sort gate)” value read?
Its value is “high polyreactivity”.

Which “polyreactivity (PSR sort gate)” value does the source give for “QVQLVESGGGLVQAGGSHRLSCAASGITFTGYGMGWYRQAPGKERELVAAIRLRTGSTYFADSVKGRFTISRDNAKNTVYLQMNSLKPEDTAVYYCNKVTVYRFRGVSWGQGTQVTVSS” here?
The value was “high polyreactivity”.

With “QVQLVESGGGLVQAGGSLRLSCAASGFTFGSNAMGWYRQAPGKERELVAAISYSGTRTYYADSVKGRFTISRDNAKNTVYLQMNRLKPEDTAVNYCAAGFRKTQFNVRYDYWGQGTQVTVSS” as the sequence, how does the “polyreactivity (PSR sort gate)” value read?
The value was “high polyreactivity”.

For “QVQLEESGGGLVQAGGSLRLSCAASGIIFAYYAMGWYRQAPGKERELVGTNYADSVKGRFTISRDNAKNTVYLQMNSLKPEDTAVYYCAVVGGEFSSYGYWGQGTLVTVSS”, which “polyreactivity (PSR sort gate)” value is on record?
Its value is “low polyreactivity”.
